Results on three molecules are retold here after PMC9482650, “Quantitative fragmentomics allow affinity mapping of interactomes” (Nature Communications, 2022).

Common to all, as to assay: holdup assay
Common to all, as to parameters: key: below the threshold = too weak to quantify, mostly under pKd 3.1 to 4

The target in assay [1] is T1, ARHGEF11, O15085.
T1 sequence (O15085 42-136, limits assumed, looked up): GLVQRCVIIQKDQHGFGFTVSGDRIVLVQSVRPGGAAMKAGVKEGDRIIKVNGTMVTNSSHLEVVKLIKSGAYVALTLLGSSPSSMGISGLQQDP

Assay [2] has as its target T2, CARD11, Q9BXL7.
T2 sequence (Q9BXL7 662-765, limits assumed, looked up): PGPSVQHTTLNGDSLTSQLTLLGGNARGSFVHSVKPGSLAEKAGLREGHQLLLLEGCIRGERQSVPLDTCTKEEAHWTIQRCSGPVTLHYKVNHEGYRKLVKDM

In assay [3] the target is T3, DLG3_2, Q92796.
T3 sequence (Q92796 221-321, limits assumed, looked up): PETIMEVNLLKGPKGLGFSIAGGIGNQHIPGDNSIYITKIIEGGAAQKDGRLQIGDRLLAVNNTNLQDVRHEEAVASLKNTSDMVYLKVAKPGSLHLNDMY

Assay [4] has as its target GOPC, Q9HD26.
Assay [5] has as its target GRID2IP_2, A4D2P6.
Assay [6] concerns the target T4, GRIP1_5, Q9Y3R0.
T4 sequence (Q9Y3R0 568-668, limits assumed, looked up): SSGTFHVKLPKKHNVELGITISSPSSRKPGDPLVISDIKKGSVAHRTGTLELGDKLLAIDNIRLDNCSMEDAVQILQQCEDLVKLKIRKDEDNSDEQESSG

Assay [7] addresses HTRA1, Q92743.
In assay [8] the target is IL16_4, Q14005.
For assay [9], the target named is Inadl_6, Q8NI35.
For assay [10], the target named is T5, LIN7A, O14910.
T5 sequence (O14910 103-200, limits assumed, looked up): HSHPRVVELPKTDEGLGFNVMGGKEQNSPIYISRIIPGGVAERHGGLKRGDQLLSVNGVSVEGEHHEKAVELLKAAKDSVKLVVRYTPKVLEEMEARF

The target of assay [11] is T6, LIN7B, Q9HAP6.
T6 sequence (Q9HAP6 88-185, limits assumed, looked up): T5 sequence (O14910 103-200, limits assumed, looked up) with S2A, V20I, I35V, E42D, H65Q, K77Q, D78G, K89R

The target in assay [12] is T7, LIN7C, Q9NUP9.
T7 sequence (Q9NUP9 88-185, limits assumed, looked up): T5 sequence (O14910 103-200, limits assumed, looked up) with D13E, V20I, V40I, E42D, K77Q, D78G, S79K, A96S

For assay [13], the target named is MAGI2_2, Q86UL8.
Assay [14] addresses MAGI2_4, Q86UL8.
Assay [15] addresses MAGI2_6, Q86UL8.
Assay [16] deals with MAGI3_2, Q5TCQ9.
The target in assay [17] is T8, NHERF3_4, Q5T2W1.
T8 sequence (Q5T2W1 373-468, limits assumed, looked up): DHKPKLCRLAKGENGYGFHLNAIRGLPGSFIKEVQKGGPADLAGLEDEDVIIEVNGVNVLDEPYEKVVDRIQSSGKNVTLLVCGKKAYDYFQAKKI

The target of assay [18] is T9, PARD3B_1, Q8TEW8.
T9 sequence (Q8TEW8 196-299, limits assumed, looked up): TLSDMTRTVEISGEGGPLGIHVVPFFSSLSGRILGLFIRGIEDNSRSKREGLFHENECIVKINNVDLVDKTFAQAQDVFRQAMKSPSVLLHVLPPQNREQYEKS

In assay [19] the target is T10, PTPN13_1, Q12923.
T10 sequence (Q12923 1088-1188, limits assumed, looked up): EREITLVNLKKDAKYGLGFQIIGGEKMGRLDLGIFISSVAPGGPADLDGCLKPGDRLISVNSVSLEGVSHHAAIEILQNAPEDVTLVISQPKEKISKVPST

Assay [20] deals with T11, RHPN1, Q8TCX5.
T11 sequence (Q8TCX5 508-602, limits assumed, looked up): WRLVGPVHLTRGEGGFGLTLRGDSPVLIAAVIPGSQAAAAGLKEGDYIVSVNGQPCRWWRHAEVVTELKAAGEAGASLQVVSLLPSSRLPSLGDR

The target in assay [21] is SCRIB_1, Q14160.
Assay [22] concerns the target T12, SNTG2, Q9NY99.
T12 sequence (Q9NY99 68-166, limits assumed, looked up): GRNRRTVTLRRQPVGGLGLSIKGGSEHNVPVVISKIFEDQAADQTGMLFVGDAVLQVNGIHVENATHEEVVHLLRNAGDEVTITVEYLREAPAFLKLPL

In assay [23] the target is T13, TIAM2, Q8IVF5.
T13 sequence (Q8IVF5 885-986, limits assumed, looked up): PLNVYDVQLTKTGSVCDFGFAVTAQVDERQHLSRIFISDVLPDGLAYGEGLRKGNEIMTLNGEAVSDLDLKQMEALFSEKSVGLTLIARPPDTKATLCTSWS

Assay [24] addresses TJP2_1, Q9UDY2.
[25] abbreviates: plain residues with an end cap or a label only (N-terminal biotin on a linker: ttds).
[26] abbreviates: plain residues with an end cap or a label only (N-terminal biotin on a linker: ahx).

Changes are numbered by the printed parent chain.

As a reminder, the pKd is −log10 of the Kd, conventionally taken in molar units.

MAGI3_2, Q5TCQ9, sequence (Q5TCQ9 398-503): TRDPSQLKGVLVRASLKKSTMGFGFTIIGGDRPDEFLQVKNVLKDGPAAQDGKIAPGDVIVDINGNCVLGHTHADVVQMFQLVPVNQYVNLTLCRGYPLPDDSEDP
IL16_4, Q14005, sequence (Q14005 1229-1329): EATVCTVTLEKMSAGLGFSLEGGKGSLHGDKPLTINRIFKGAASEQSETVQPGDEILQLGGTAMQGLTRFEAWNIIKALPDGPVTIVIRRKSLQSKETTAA
SCRIB_1, Q14160, sequence (Q14160 718-814): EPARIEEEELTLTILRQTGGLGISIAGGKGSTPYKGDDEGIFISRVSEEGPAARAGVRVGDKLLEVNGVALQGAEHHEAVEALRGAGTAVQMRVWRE
Inadl_6, Q8NI35, sequence (Q8NI35 1058-1167): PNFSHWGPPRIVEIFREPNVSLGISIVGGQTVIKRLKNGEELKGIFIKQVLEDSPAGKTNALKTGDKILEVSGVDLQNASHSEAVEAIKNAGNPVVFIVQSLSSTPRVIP
MAGI2_4, Q86UL8, sequence (Q86UL8 772-865): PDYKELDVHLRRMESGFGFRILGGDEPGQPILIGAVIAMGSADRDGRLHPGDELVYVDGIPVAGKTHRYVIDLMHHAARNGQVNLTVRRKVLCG
MAGI2_2, Q86UL8, sequence (Q86UL8 410-522): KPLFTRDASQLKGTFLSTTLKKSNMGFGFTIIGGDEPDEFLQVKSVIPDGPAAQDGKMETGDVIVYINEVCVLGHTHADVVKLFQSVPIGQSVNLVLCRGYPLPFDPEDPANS
MAGI2_6, Q86UL8, sequence (Q86UL8 1141-1229): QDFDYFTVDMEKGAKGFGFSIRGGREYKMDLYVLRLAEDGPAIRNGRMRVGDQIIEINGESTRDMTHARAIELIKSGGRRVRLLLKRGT
HTRA1, Q92743, sequence (Q92743 360-477): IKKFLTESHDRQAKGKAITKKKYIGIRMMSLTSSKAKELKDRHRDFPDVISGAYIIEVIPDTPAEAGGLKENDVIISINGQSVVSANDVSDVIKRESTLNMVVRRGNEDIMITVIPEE
TJP2_1, Q9UDY2, sequence (Q9UDY2 24-128): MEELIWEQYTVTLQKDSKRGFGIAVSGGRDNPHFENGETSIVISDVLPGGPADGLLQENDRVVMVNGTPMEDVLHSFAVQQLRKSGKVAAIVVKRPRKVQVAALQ
GRID2IP_2, A4D2P6, sequence (A4D2P6 272-370): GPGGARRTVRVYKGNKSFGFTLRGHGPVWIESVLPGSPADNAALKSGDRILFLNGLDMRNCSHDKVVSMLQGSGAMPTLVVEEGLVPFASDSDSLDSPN

B1: TJP2, Q9UDY2 (peptide)
chain: QSARYRDTEL
With B1, the pKd is 3.87 in assay [1] (setting [25]); “below the threshold” in [2] (setting [25]); “below the threshold” in assay [3] (setting [25]); “below the threshold” in assay [4] (setting [25]); “below the threshold” in [5] (setting [25]); “below the threshold” in assay [6] (setting [25]). Further, the negative logarithm of the Kd (pKd) entry in assay [7] (setting [25]), in [8] (setting [25]), in [9] (setting [25]), in assay [10] (setting [25]), in [11] (setting [25]) and in assay [12] (setting [25]) was “below the threshold” each time. Moreover, the pKd entry was “below the threshold” in assay [13] (setting [25]); 3.74 in [14] (setting [25]); 4.36 in assay [15] (setting [25]); “below the threshold” in assay [16] (setting [25]); 3.81 in [17] (setting [25]); “below the threshold” in assay [18] (setting [25]). Further, the pKd result in [19] (setting [25]) was “below the threshold”; in assay [20] (setting [25]), 4.03; in assay [21] (setting [25]) it was 4.46; in assay [22] (setting [25]), 3.84; in assay [23] (setting [25]) it was “below the threshold”; in assay [24] (setting [25]), “below the threshold”.

B2: MYO18A, Q92614 (peptide)
chain: TEAKLTETNA
B2: the pKd result in assay [1] (setting [26]), in assay [2] (setting [26]), in assay [3] (setting [26]), in [4] (setting [26]), in [5] (setting [26]) and in [6] (setting [26]) was “below the threshold” each time. Further, the negative logarithm of the Kd (pKd) result in assay [7] (setting [26]), in assay [8] (setting [26]), in assay [9] (setting [26]), in assay [10] (setting [26]), in assay [11] (setting [26]) and in [12] (setting [26]) was “below the threshold” throughout. Besides, the negative-log Kd (pKd) result in assay [13] (setting [26]), in assay [14] (setting [26]), in [15] (setting [26]), in assay [16] (setting [26]), in assay [17] (setting [26]) and in [18] (setting [26]) was “below the threshold” in each case. The pKd result in assay [19] (setting [26]), in assay [20] (setting [26]), in assay [21] (setting [26]), in [22] (setting [26]), in [23] (setting [26]) and in assay [24] (setting [26]) was “below the threshold” each time.

B3: ARHGAP17, Q68EM7 (peptide)
chain: IDNDTESTAL
On to B3, for which the pKd in [1] (setting [25]) was 4.79; in assay [2] (setting [25]), “below the threshold”; in assay [3] (setting [25]) it was “below the threshold”; in assay [4] (setting [25]), 3.86; in [5] (setting [25]), 4.87; in [6] (setting [25]), “below the threshold”. The pKd was 3.65 in assay [7] (setting [25]); “below the threshold” in [8] (setting [25]); 3.91 in assay [9] (setting [25]); “below the threshold” in [10] (setting [25]); “below the threshold” in assay [11] (setting [25]); “below the threshold” in assay [12] (setting [25]). Moreover, the negative logarithm of the Kd (pKd) entry was “below the threshold” in assay [13] (setting [25]); “below the threshold” in [14] (setting [25]); 3.79 in [15] (setting [25]); “below the threshold” in [16] (setting [25]); 4.78 in assay [17] (setting [25]); 3.93 in [18] (setting [25]). Moreover, the negative logarithm of the Kd (pKd) entry is “below the threshold” in [19] (setting [25]); 4.47 in [20] (setting [25]); 4.91 in [21] (setting [25]); 3.8 in [22] (setting [25]); “below the threshold” in assay [23] (setting [25]); “below the threshold” in assay [24] (setting [25]).
